Measured values as given in doi:10.1101/2025.11.04.686334.

Target: FluA-20 mAb
Test: BLI

FluA-20 mAb, sequence (heavy, as listed by the source, chain 1 of 2): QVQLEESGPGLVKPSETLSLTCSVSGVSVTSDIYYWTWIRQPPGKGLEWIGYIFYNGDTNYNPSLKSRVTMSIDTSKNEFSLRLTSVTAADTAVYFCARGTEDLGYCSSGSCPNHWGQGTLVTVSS
FluA-20 mAb, sequence (light, as listed by the source, chain 2 of 2): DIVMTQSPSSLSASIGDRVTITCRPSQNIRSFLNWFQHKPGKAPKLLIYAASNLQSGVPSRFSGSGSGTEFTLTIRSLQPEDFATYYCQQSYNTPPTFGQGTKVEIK
HA220-2, sequence (Q9NZ52 16-146): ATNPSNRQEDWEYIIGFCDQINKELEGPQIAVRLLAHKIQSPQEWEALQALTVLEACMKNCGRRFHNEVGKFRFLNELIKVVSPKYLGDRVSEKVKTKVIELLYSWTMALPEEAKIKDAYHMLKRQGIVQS

HA220-2 (from UniProt Q9NZ52 16-146)
Kd: 978 nM
